Assay results reported in patent publication US6416987B1, “Mutants of thymidylate synthase and uses thereof” (Sloan Kettering Institute for Cancer Research, priority 1997, dated 2002).
Substitutions are numbered along the chain they refer to. Names and notes keep the numbering of the source. “Also recorded” adds a separate entry of the source. Like-named read-outs stand apart in the source and are kept apart here.

B1: pcDNA3hTS270: human TS mutant Ile108→Gly (protein, UniProt P04818 2-313, looked up, variant I108G)
Thymidylate synthase: PVAGSELPRRPLPPAAQERDAEPRPPHGELQYLGQIQHILRCGVRKDDRTGTGTLSVFGMQARYSLRDEFPLLTTKRVFWKGVLEELLWFIKGSTNAKELSSKGVKGWDANGSRDFLDSLGFSTREEGDLGPVYGFQWRHFGAEYRDMESDYSGQGVDQLQRVIDTIKTNPDDRRIIMCAWNPRDLPLMALPPCHALCQFYVVNSELSCQLYQRSGDMGLGVPFNIASYALLTYMIAHITGLKPGDFIHTLGDAHIYLNHIEPLKIQLQREPRPFPKLRILRKVEKIDDFKAEDFQIEGYNPHPTIKMEMAV
B2: pcDNA3hTS272: human TS mutant Ile108→Asn (protein, UniProt P04818 2-313, looked up, variant I108N)
Thymidylate synthase: B1 Thymidylate synthase with G107N
B3: pcDNA3hTS271: human TS mutant Ile108→Glu (protein, UniProt P04818 2-313, looked up, variant I108E)
Thymidylate synthase: B1 Thymidylate synthase with G107E
B4: D49G: human TS mutant Asp49→Gly (protein)
chain: MPVAGSELPRRPLPPAAQERDAEPRPPHGELQYLGQIQHILRCGVRKDGRTGTGTLSVFGMQARYSLRDEFPLLTTKRVFWKGVLEELLWFIKGSTNAKELSSKGVKIWDANGSRDFLDSLGFSTREEGDLGPVYGFQWRHFGAEYRDMESDYSGQGVDQLQRVIDTIKTNPDDRRIIMCAWNPRDLPLMALPPCHALCQFYVVNSELSCQLYQRSGDMGLGVPFNIASYALLTYMIAHITGLKPGDFIHTLGDAHIYLNHIEPLKIQLQREPRPFPKLRILRKVGKIDDFKAEDFQIEGYNPHPTIKMEMAV
B5: G52S: human TS mutant Gly52→Ser (protein)
chain: B4 chain with G49D, G52S
B6: F225L: human TS mutant Phe225→Leu (protein)
chain: B4 chain with G49D, F225L
B7: T51A: human TS mutant Thr51→Ala (protein)
chain: B4 chain with G49D, T51A
B8: F225W: human TS mutant Phe225→Trp (protein)
chain: B4 chain with G49D, F225W
B9: Q214R: human TS mutant Gln214→Arg (protein)
chain: B4 chain with G49D, Q214R
B10: I108A: human TS mutant Ile108→Ala (protein)
chain: B4 chain with G49D, I108A
B11: L221A: human TS mutant Leu221→Ala (protein)
chain: B4 chain with G49D, L221A
B12: F225S: human TS mutant Phe225→Ser (protein)
chain: B4 chain with G49D, F225S
B13: F225Y: human TS mutant Phe225→Tyr (protein)
chain: B4 chain with G49D, F225Y
B14: L221F: human TS mutant Leu221→Phe (protein)
chain: B4 chain with G49D, L221F
B15: L221R: human TS mutant Leu221→Arg (protein)
chain: B4 chain with G49D, L221R
B16: D49N: human TS mutant Asp49→Asn (protein)
chain: B4 chain with G49N
B17: F59L: human TS mutant Phe59→Leu (protein)
chain: B4 chain with G49D, F59L
B18: R50C: human TS mutant Arg50→Cys (protein)
chain: B4 chain with G49D, R50C
B19: K47E: human TS mutant Lys47→Glu (protein)
chain: B4 chain with K47E, G49D
B20: I108F: human TS mutant Ile108→Phe (protein)
chain: B4 chain with G49D, I108F
B21: L221I: human TS mutant Leu221→Ile (protein)
chain: B4 chain with G49D, L221I
B22: wt: wild-type human thymidylate synthase (recombinant, Pro2 to Leu2 codon modification) (protein, listed as Homo sapiens)
chain: B4 chain with G49D
modifications: Wild type human thymidylate synthase amino acid sequence (Genbank Accession number NP001062)
B23: L221S: human TS mutant Leu221→Ser (protein)
chain: B4 chain with G49D, L221S

Columns and labels:
[1] = system: Mouse TS-negative cells (FSthy21); test: Rescue of TS-negative cells by transfection of human TS cDNAs; type: cell-based; conditions: for FM3A TS cells surviving by transfection: selective medium without thymidine; for TS catalytic function / complementation of growth of TS-negative cells: selective medium lacking thymidine
Excerpt: Mouse TS-negative cells (FSthy21) were transfected with a plasmid (pcDNA3hTS*) encoding wild-type or a various mutant human TS enzyme by standard DOTAP transfection procedures. The host cells are deficient in TS, which are unable to survive without exogenous thymidine. […] In contrast, cells were unable to survive with transfection of other 11 human TS variants. For each surviving transfectant, at least 12 individual clones were isolated by soft agar or limiting dilution in 96-well plates. Those clones were expanded to cell lines by growth in normal media. Three cell clones for each transfectant were randomly selected for drug sensitivity assay.

[2] = system: human thymidylate synthase; test: Kinetic parameters of wild-type and mutant human thymidylate synthases; type: biochemical
Experimental: TS activity was monitored spectrophotometrically at 340 nm as described (Wahba et al., 1961). Activity was determined at 30° C. The assay mixture contained 50 mM Tris.HCl, pH 7.4, 25 mM MgCl2, 6.5 mM formadehyde, 1 mM EDTA, 75 mM BME and 100 μM dUMP, CH2H4folate (100 μM) was added to initiate the reaction. Black cuvettes lacked CH2H4folate. A unit of activity is defined as the amount of enzyme required to convert 1 μmol of dUMP to dTMP/minutes at 30° C. Protein was determined from OD280=0.87×10^5 M^−1 cm^−1, which is equivalent to 1.43 OD280/mg of protein.
Michaelis constants (Km's) for CH2H4folate and dUMP were determined from initial velocity measurements, which were obtained by measuring the change in OD340 with a Shimadzu UV-2101 PC spectrophotometer. […] Steady-state kinetic parameters were subsequently obtained by a nonlinear least-squares fit of the data to the Michaelis-Menten equation using a computer program. The kcats were calculated by dividing Vmax by the estimated concentration of enzyme used in the reaction.

[3] = CH2H4folate 3 mM, read-out: Km (dUMP)
[4] = dUMP fixed at 200 μM, read-out: Km (CH2H4folate)

Molecule | FM3A TS cells surviving by transfection [1] | TS catalytic function / complementation of growth of TS-negative cells [1] | further results
B1 | no |  | 
B2 | no |  | 
B3 | no |  | 
B4 | yes | able to complement growth; also recorded: retain TS catalytic function; also recorded: able to allow growth | increase of Km for CH2H4folate over wild-type [2]: 4 fold; increase of Km for dUMP over wild-type [2]: 4 fold; kcat [2]: 0.16 s⁻¹; kcat lower than wild-type TS [2]: 3 fold; Km [2, 3]: 12 µM; Km [2, 4]: 122 µM
B5 | yes | able to complement growth; also recorded: retain TS catalytic function; also recorded: able to allow growth | 
B6 | yes | able to complement growth; also recorded: active enzymes | 
B7 | no | not tolerated | 
B8 | yes | able to complement growth; also recorded: active enzymes | increase of Km for CH2H4folate over wild-type [2]: 4 fold; kcat [2]: 2.3 s⁻¹; Km [2, 3]: 3.6 µM; Km [2, 4]: 165 µM
B9 | no |  | 
B10 | yes | able to complement growth; also recorded: functional | increase of Km for CH2H4folate over wild-type [2]: 22 fold; increase of Km for dUMP over wild-type [2]: 4 fold; kcat [2]: 0.22 s⁻¹; kcat lower than wild-type TS [2]: 3 fold; Km [2, 3]: 15 µM; Km [2, 4]: 746 µM
B11 | yes | able to complement growth | 
B12 | no | severely diminished TS catalytic activity | 
B13 | yes | able to complement growth; also recorded: active enzymes | 
B14 | no | inactive | 
B15 | no |  | 
B16 | no | not tolerated | 
B17 | no |  | 
B18 | no | catalytically inactive | 
B19 | yes | able to complement growth; also recorded: retain TS catalytic function; also recorded: able to allow growth | 
B20 | yes | able to complement growth; also recorded: functional | 
B21 | yes | able to complement growth | 
B22 | yes | able to complement growth | kcat [2]: 0.68 s⁻¹; Km [2, 3]: 4.4 µM; Km [2, 4]: 32.4 µM
B23 | yes | able to complement growth | 
